This is an account of results in publication PMC7938805, “Biophysical and biochemical properties of Deup1 self-assemblies: a potential driver for deuterosome formation during multiciliogenesis” (Biology Open, 2021).

The series concerns the molecule itself. Nature of the series: fluorescence microscopy of assemblies of purified protein; purified fluorescent protein (100 nM where stated) in 50 mM Tris pH 7.5, 150 mM NaCl, 1.5% glycerol with PEG8000 (up to 6%) or BSA 300 mg/ml as crowding agent, RT 10 min, confocal imaging.

B1: mScarlet I-Deup1 N-terminus fragment (1-466 a.a.) (domain or fragment, mouse, UniProt Q7M6Y5-1 1-466, looked up)
chain: MENQAHTTAGASPCEAELQELMEQIDIMVSNKKLDWERKMRALETRLDLRDQELANAQTCLDQKGQEVGLLRQKLDSLEKCNLVMTQNYEGQLQTLKAQFSKLTSNFEKLRLHQMKQNQIHRKESSSKEELPFELSSLNQKLEEFRAKSREWDKQEVLYQTHLVSLDAQQKLLSEKCSQFQKQAQNYQTQLNGKKQCAEDSSSEIPRLVCESDPGCEATQRDEFIIEKLKSAVSEIALSRNKLQDENQKLLQELKMYQRQCQAMEAGLSEVKSELQSRDDLLRIIEMERLHLHRELLRMGEVQTAQDNRKRVESSYSPSPKEAERKRKELFPMVSDQPNHEKELSKMRSQLYQEEGLCSEQERLRSEISELTQELHQKEVTIATVMKKAALLERQLKIELEIKERMLAKQQVSDRRYKAVRTENTHLKGMMGDLDPARYLAVDLSNKKHSQCTSINKLEYENERLR
notes: Deuterosome protein 1 (Deup1), mouse, longer isoform NP_001360846, residues 1-466, with multiple coiled coil domains; source: E. coli BL21 gold (DE3), purified (Ni-NTA, glutathione sepharose, eluted with PreScission and TEV protease); not shown: GST, N-terminal, cleaved; mScarlet I, N-terminal, kept; His6, C-terminal, cleaved
On to B1, for which the binding result is given as “binds”.

B2: mScarlet I-Deup1 (deuterosome protein 1, mouse, longer isoform) (natural protein, UniProt Q7M6Y5-1 1-601, looked up)
chain: MENQAHTTAGASPCEAELQELMEQIDIMVSNKKLDWERKMRALETRLDLRDQELANAQTCLDQKGQEVGLLRQKLDSLEKCNLVMTQNYEGQLQTLKAQFSKLTSNFEKLRLHQMKQNQIHRKESSSKEELPFELSSLNQKLEEFRAKSREWDKQEVLYQTHLVSLDAQQKLLSEKCSQFQKQAQNYQTQLNGKKQCAEDSSSEIPRLVCESDPGCEATQRDEFIIEKLKSAVSEIALSRNKLQDENQKLLQELKMYQRQCQAMEAGLSEVKSELQSRDDLLRIIEMERLHLHRELLRMGEVQTAQDNRKRVESSYSPSPKEAERKRKELFPMVSDQPNHEKELSKMRSQLYQEEGLCSEQERLRSEISELTQELHQKEVTIATVMKKAALLERQLKIELEIKERMLAKQQVSDRRYKAVRTENTHLKGMMGDLDPARYLAVDLSNKKHSQCTSINKLEYENERLRSDLAKLHGNGKAAWPNQSSYGEAGAYVFQSQLKTETSGDRISQDCELNRSPTPLSPLPFQTKEMASPLVGDNEVLALSPPDISFRASLAAQHFLMEEERRAKELEKLLNTHIDELQRHTEFTLNKYTKLKQSRHI
notes: Deuterosome protein 1 (Deup1), mouse, longer isoform NP_001360846, cloned from a mouse lung cDNA library with primers from the start to the stop codon; 601 residues by the fragment limits; Expressed from pGEX 6p-1 modified with a C-terminal 6xHis tag and a TEV site; also called mS-Deup1; full-length Deup1; source: E. coli BL21 gold (DE3), purified (Ni-NTA, glutathione sepharose, eluted with …)
Take B2: the binding result is on record as “binds”.
